The text below walks through data of US20080220446A1, “Method for Detecting and/or Removing Protein and/or Peptide Comprising a Cross-Beta Structure From an Aqueous Solution Comprising a Protein” (priority 2005, published 2008).

This test has as its target T1, Fn F4-5 (Homo sapiens, UniProt P02751).
T1 construct: amino-acids NH2—I182-V276-COOH of Fn F4-5; made in house; host or cells: Saccharomyces cerevisiae
The experiment in a line: Biacore surface plasmon resonance, binding to immobilized Fn F4-5. As for the experimental part: Binding of cross-β structure containing peptides/proteins was studied using surface plasmon resonance technology with a Biacore 2000 apparatus (Biacore AB, Uppsala, Sweden). A standardized amine coupling procedure was used to couple proteins with F domains to a CM5 chip (Biacore AB, Uppsala, Sweden). First, the dextran surface of the chips was activated by a 35 μl injection with a 1:1 mixture of 0.1 M N-hydroxysuccinimide (NHS) and 0.4 M N-ethyl-N′-(dimethylaminopropyl)carbodiimide (EDC) at a flow rate of 5 μl min.^−1. Then, the proteins were covalently coupled to the activated dextran surface. Remaining activated groups in each of the four flow channels were blocked by injection of 35 μl of 1 M ethanolamine hydrochloride pH 8.5. EDC, NHS and ethanolamine hydrochloride were obtained from Biacore. On one chip, on channels 1 to 4, buffer (reference channel), the soluble extracellular part of receptor for advanced glycation endproducts (sRAGE), tPA and K2P-tPA were immobilized. […] Binding of albumin-AGE was determined with a solution of 3.9 μg ml^−1 albumin-AGE in running buffer. albumin-AGE was filtered on a Millex-GV 0.22 μm filter unit (Millipore). […] Binding of Hb-AGE was also tested after centrifugation for 10 min. at 16,000*g alternative to filtration. tPA activation before and after filtration was assessed with a Plg-activation assay. […]
On the technique in general: In SPR one partner is held on a chip, and binding of the other changes the refractive index at the surface.

T1 sequence (P02751 182-276): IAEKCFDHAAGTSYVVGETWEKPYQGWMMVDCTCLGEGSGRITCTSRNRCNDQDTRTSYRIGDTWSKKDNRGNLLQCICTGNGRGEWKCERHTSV

B1: recombinant β2GPI: recombinant human β2-glycoprotein I made using insect cells (protein)
chain: GRTCPKPDDLPFSTVVPLKTFYEPGEEITYSCKPGYVSRGGMRKFICPLTGLWPINTLKCTPRVCPFAGILENGAVRYTTFEYPNTISFSCNTGFYLNGADSAKCTEEGKWSPELPVCAPIICPPPSIPTFATLRVYKPSAGNNSLYRDTAVFECLPQHAMFGNDTITCTTHGNWTKLPECREVKCPFPSRPDNGFVNYPAKPTLYYKDKATFGCHDGYSLDGPEEIECTKLGNWSAMPSCKASCKVPVKKATVVYQGERVKIQEKFKNGMLHGDKVSFFCKNKEKKCSYTEDAQCIDGTIEVPKCFKEHSSLAFWKTDASDVKPC
Take B1: the “binding to the Fn F4-5 doublet” value (Biacore, native Hb at 25 nM) is on record as “bound”. Besides, where the note is “immobilized Fn F4-5, Biacore CM5 chip, read-out: concentration of ligand that results in half maximum binding to Fn F4-5”, the Kd was 165 nM.
